Target: the molecule itself
Test: SEC; size-exclusion HPLC, Spherogel-TSK-2000SW; Gal-10 diluted to 100 μM, incubated 2 h at 4 °C; PBS–azide buffer (6.7 mM KH2PO4, 150 mM NaCl, 14 mM β-mercaptoethanol, 0.02% NaN3), pH 7.4; monomer–dimer equilibrium

B1: Recombinant human Charcot–Leyden crystal (CLC) protein (natural protein, UniProt Q05315 1-142, looked up)
chain: MSLLPVPYTEAASLSTGSTVTIKGRPLACFLNEPYLQVDFHTEMKEESDIVFHFQVCFGRRVVMNSREYGAWKQQVESKNMPFQDGQEFELSISVLPDKYQVMVNGQSSYTFDHRIKPEAVKMVQVWRDISLTKFNVSYLKR
notes: Galectin-10 (Charcot-Leyden crystal protein), human; the introduction gives 142 amino-acid residues; also called Galectin-10; Gal-10; source: E. coli, bought: Cloud-Clone Corp., purified with Ni-nitrilotriacetic acid resin
  stoichiometry N: 2

From publication PMC9966682, “Lactose and Galactose Promote the Crystallization of Human Galectin-10” (Molecules, 2023)
